The target in data set [1] is T1, p40_(C197A) (murine p40, flag-tagged) (mouse) (UniProt P43432).
T1 sequence: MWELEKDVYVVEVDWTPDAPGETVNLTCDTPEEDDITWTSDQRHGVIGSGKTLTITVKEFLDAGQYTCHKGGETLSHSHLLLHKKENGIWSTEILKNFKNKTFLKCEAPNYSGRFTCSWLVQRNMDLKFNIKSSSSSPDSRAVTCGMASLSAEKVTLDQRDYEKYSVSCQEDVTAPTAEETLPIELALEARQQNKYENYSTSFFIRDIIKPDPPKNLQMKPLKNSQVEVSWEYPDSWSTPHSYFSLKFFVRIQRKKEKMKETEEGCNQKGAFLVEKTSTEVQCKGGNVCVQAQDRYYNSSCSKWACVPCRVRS

Data set [2] deals with the molecule itself. Description: non-reducing SDS-PAGE with Western blot; 20 µl conditioned supernatant of transiently transfected HEK293 cells separated by SDS-PAGE under non-reducing conditions; flag-specific antibody; disulfide-linked dimer.

Residue numbers refer to the chain shown, from its start.

B1: recombinant murine p35 from bacteria (p35bac) (natural protein)
chain: RVIPVSGPARCLSQSRNLLKTTDDMVKTAREKLKHYSCTAEDIDHEDITRDQTSTLKTCLPLELHKNESCLATRETSSTTRGSCLPPQKTSLMMTLCLGSIYEDLKMYQTEFQAINAALQNHNHQQIILDKGMLVAIDELMQSLNHNGETLRQKPPVGEADPYRVKMKLCILLHAFSTRVVTINRVMGYLSSA
In data set [1], B1 gave a biological activity of IL-12 reconstituted with bacterially expressed p35, compared to IL-12 (Ba/F3-gp130-IL-12Rβ1-IL-12Rβ2 cells) (fold less active) greater than 100.

B2: p40 wildtype (murine p40, flag-tagged) (natural protein, mouse, UniProt P43432 23-335, looked up)
chain: T1 sequence with A175C
notes: murine p40 (IL-12 subunit beta); The supernatant holds monomer and disulfide-linked dimer; also called mp40; IL-12p40; source: HEK293, transiently transfected, conditioned supernatant
In the case of B2, the “stoichiometry N” value in data set [2] came out at 2.
